Test results published in patent US20200289646A1.

What follows are binders tested against human mesothelin (MSLN) (human) (UniProt Q13421) (assay: cell-based or functional assay).
Sequence of human mesothelin (MSLN) (human) (Q13421 296-606 limits assumed): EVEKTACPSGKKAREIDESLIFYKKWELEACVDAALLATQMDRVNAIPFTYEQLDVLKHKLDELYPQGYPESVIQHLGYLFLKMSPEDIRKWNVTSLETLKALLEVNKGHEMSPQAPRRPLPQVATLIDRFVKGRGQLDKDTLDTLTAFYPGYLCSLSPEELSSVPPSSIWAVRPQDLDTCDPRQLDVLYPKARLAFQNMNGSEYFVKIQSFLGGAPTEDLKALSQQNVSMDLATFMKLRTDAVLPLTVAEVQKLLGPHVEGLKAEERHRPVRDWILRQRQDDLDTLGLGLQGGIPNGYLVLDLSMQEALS

Binder	TDCC Average EC50 [M], OVCAR8 cells, human T cells
MSLN targeting trispecific protein 5D4 (protein, part only; not given: Albumin and CD3 binders, linkers, part only) chain, part: QVQLVESGGGLVQAGGSLRLSCVASGRTDRITTMGWYRQAPGKQRELVATISNRGTSNYANSVKGRFTISRDNAKNTVYLQMNSLKPEDTAVYYCNARKWGRNYWGQGTQVTVSSHHHHHH	1e-09 M
MSLN targeting trispecific protein 6F3 (protein, part only; not given: Albumin and CD3 binders, linkers, part only) chain, part: QVQPVESGGGLVQPGGSLRLSCVVSGSDFTEDAMAWYRQASGKERESVAFVSKDGKRILYLDSVRGRFTISRDIYKKTVYLQMDNLKPEDTGVYYCNSAPGAARNVWGQGTQVTVSSHHHHHH	8.2e-10 M
MSLN targeting trispecific protein 2A1 (protein, part only; not given: Albumin and CD3 binders, linkers, part only) chain, part: QVQPVESGGGLVQPGGSLRLSCVVSGSDFTEDAMAWYRQASGKERESVAFVSKDGKRILYLDSVRGRFTISRDIDKKTVYLQMDNLKPEDTGVYYCNSAPGAARNYWGQGTQVTVSSHHHHHH	1.2e-09 M
MSLN targeting trispecific protein 5H1 (protein, part only; not given: Albumin and CD3 binders, linkers, part only) chain, part: QVQLVESGGGLVQPGGSLRLSCAASGGDWSANFMYWYRQAPGKQRELVARISGRGVVDYVESVKGRFTISRDNAKNTVYLQMNSLKPEDTAVYYCAVASYWGQGTQVTVSSHHHHHH	5.9e-12 M
MSLN targeting trispecific protein 2D1 (protein, part only; not given: Albumin and CD3 binders, linkers, part only) chain, part: QVQLVESGGGLVQAGGSLRLSCAASTTSSINSMSWYRQAQGKQREPVAVITDRGSTSYADSVKGRFTISRDNAKNTVYLQMNSLKPEDTAIYTCHVIADWRGYWGQGTQVTVSSHHHHHH	5.2e-11 M
MSLN targeting trispecific protein 2F4 (protein, part only; not given: Albumin and CD3 binders, linkers, part only) chain, part: QVQLVESGGGLVQAGGSLRLSCTTSTTFSINSMSWYRQAPGNQREPVAVITNRGTTSYADSVKGRFTISRDNARNTVYLQMDSLKPEDTAIYTCHVIADWRGYWGQGTQVTVSSHHHHHH	7.3e-13 M
MSLN targeting trispecific protein 6H2 (protein, part only; not given: Albumin and CD3 binders, linkers, part only) chain, part: QVQLVESGGGLVQAGGSLRLSCAASGRTLSRYAMGWFRQAPGKERQFVAAISRSGGTTRYSDSVKGRFTISRDNAANTFYLQMNNLRPDDTAVYYCNVRRRGWGRTLEYWGQGTQVTVSSHHHHHH	2e-09 M
MSLN targeting trispecific protein 9B1 (protein, part only; not given: Albumin and CD3 binders, linkers, part only) chain, part: QVQLVESGGGLVQPGGSLRLSCAASGRTFSVRGMAWYRQAGNNRALVATMNPDGFPNYADAVKGRFTISWDIAENTVYLQMNSLNSEDTTVYYCNSGPYWGQGTQVTVSSHHHHHH	> 1e-07 M
MSLN targeting trispecific protein 7C4 (protein, part only; not given: Albumin and CD3 binders, linkers, part only) chain, part: QVQLVESGGGLVPSGGSLRLSCAASGATSAITNLGWYRRAPGQVREMVARISVREDKEDYEDSVKGRFTISRDNTQNLVYLQMNNLQPHDTAIYYCGAQRWGRGPGTTWGQGTQVTVSSHHHHHH	1e-08 M
MSLN targeting trispecific protein 2C2 (protein, part only; not given: Albumin and CD3 binders, linkers, part only) chain, part: QVQLVESGGGLVQAGESRRLSCAVSGDTSKFKAVGWYRQAPGAQRELLAWINNSGVGNTAESVKGRFTISRDNAKNTVYLQMNRLTPEDTDVYYCRFYRRFGINKNYWGQGTQVTVSSHHHHHH	9.5e-09 M
MSLN targeting trispecific protein 12C2 (protein, part only; not given: Albumin and CD3 binders, linkers, part only) chain, part: QVQLVESGGGLVQTGGSLRLSCAASGLTFGVYGMEWFRQAPGKQREWVASHTSTGYVYYRDSVKGRFTISRDNAKSTVYLQMNSLKPEDTAIYYCKANRGSYEYWGQGTQVTVSSHHHHHH	8e-13 M
MSLN targeting trispecific protein 5F2 (protein, part only; not given: Albumin and CD3 binders, linkers, part only) chain, part: QVQLVESGGGLVQAGGSLRLSCAASGSTFRIRVMRWYRQAPGTERDLVAVISGSSTYYADSVKGRFTISRDNAKNTLYLQMNNLKPEDTAVYYCNADDSGIARDYWGQGTQVTVSSHHHHHH	5.3e-12 M
MSLN targeting trispecific protein 2A4 (protein, part only; not given: Albumin and CD3 binders, linkers, part only) chain, part: QVQLVESGGGLVQARGSLRLSCTASGRTIGINDMAWYRQAPGNQRELVATITKGGTTDYADSVDGRFTISRDNAKNTVYLQMNSLKPEDTAVYYCNTKRREWAKDFEYWGQGTQVTVSSHHHHHH	1.9e-09 M
MSLN targeting trispecific protein 5D2 (protein, part only; not given: Albumin and CD3 binders, linkers, part only) chain, part: QVQLGESGGGLVQAGGSLRLSCAASGSIFSPNAMIWHRQAPGKQREPVASINSSGSTNYGDSVKGRFTVSRDIVKNTMYLQMNSLKPEDTAVYYCSYSDFRRGTQYWGQGTQVTVSSHHHHHH	1.4e-11 M

Continued, values first:

TDCC Average EC50 [M], OVCAR8 cells, human T cells	Binder
4e-09 M	MSLN targeting trispecific protein 3G1 (protein, part only; not given: Albumin and CD3 binders, linkers, part only) chain, part: QVRLVESGGGLVQAGESLRLSCAASGRPFSINTMGWYRQAPGKQRELVASISSSGDFTYTDSVKGRFTISRDNAKNTVYLQMNSLKPEDTAVYYCNARRTYLPRRFGSWGQGTQVTVSSHHHHHH
2.4e-08 M	MSLN targeting trispecific protein 3F2 (protein, part only; not given: Albumin and CD3 binders, linkers, part only) chain, part: QVQIVESGGGLVQAGGSLRLSCVASGLTYSIVAVGWYRQAPGKEREMVADISPVGNTNYADSVKGRFTISKENAKNTVYLQMNSLKPEDTAVYYCHIVRGWLDERPGPGPIVYWGQGTQVTVSSHHHHHH
5.5e-12 M	MSLN targeting trispecific protein 7H2 (protein, part only; not given: Albumin and CD3 binders, linkers, part only) chain, part: QVQLVESGGGLVQAGGSLRLSCAFSGTTYTFDLMSWYRQAPGKQRTVVASISSDGRTSYADSVRGRFTISGENGKNTVYLQMNSLKLEDTAVYYCLGQRSGVRAFWGQGTQVTVSSHHHHHH
2.4e-12 M	MSLN targeting trispecific protein 7F1 (protein, part only; not given: Albumin and CD3 binders, linkers, part only) chain, part: QVQLVESGGGLVQAGGSLRLSCAASAIGSINSMSWYRQAPGKQREPVAVITDRGSTSYADSVKGRFTISRDNAKNTVYLQMNSLKPEDTAIYTCHVIADWRGYWGQGTQVTVSSHHHHHH
1.8e-12 M	MSLN targeting trispecific protein 3B4 (protein, part only; not given: Albumin and CD3 binders, linkers, part only) chain, part: QVQLVESGGGLVQAGGSLRLSCVASGSTSNINNMRWYRQAPGKERELVAVITRGGYAIYLDAVKGRFTISRDNANNAIYLEMNSLKPEDTAVYVCNADRVEGTSGGPQLRDYFGQGTQVTVSSHHHHHH
> 1e-07 M	MSLN targeting trispecific protein 9F3 (protein, part only; not given: Albumin and CD3 binders, linkers, part only) chain, part: QVQLVESGGGLVQAGGSLRLSCAASGSIPSIEQMGWYRQAPGKQRELVAALTSGGRANYADSVKGRFTISGDNVRNMVYLQMNSLKPEDTAIYYCSAGRFKGDYAQRSGMDYWGKGTLVTVSSHHHHHH
3.6e-09 M	MSLN targeting trispecific protein 5G2 (protein, part only; not given: Albumin and CD3 binders, linkers, part only) chain, part: QVQLVESGGGLVQAGGSLRLSCAASGSTFGNKPMGWYRQAPGKQRELVAVISSDGGSTRYAALVKGRFTISRDNAKNTVYLQMESLVAEDTAVYYCNALRTYYLNDPVVFSWGQGTQVTVSSHHHHHH
1.1e-09 M	MSLN targeting trispecific protein 12D1 (protein, part only; not given: Albumin and CD3 binders, linkers, part only) chain, part: QVRLVESGGGLVQAGGSLRLSCAASISAFRLMSVRWYRQDPSKQREWVATIDQLGRTNYADSVKGRFAISKDSTRNTVYLQMNMLRPEDTAVYYCNAGGGPLGSRWLRGRHWGQGTQVTVSSHHHHHH
1.7e-09 M	MSLN targeting trispecific protein 4A2 (protein, part only; not given: Albumin and CD3 binders, linkers, part only) chain, part: QVQLVESGGGLVQAGGSLRLSCAASGSTFGINAMGWYRQAPGKQRELVAVISRGGSTNYADSVKGRFTISRDNAENTVSLQMNTLKPEDTAVYFCNARTYTRHDYWGQGTQVTVSSHHHHHH
2.2e-12 M	MSLN targeting trispecific protein 11F3 (protein, part only; not given: Albumin and CD3 binders, linkers, part only) chain, part: QVQLVESGGGLVQAGGSLRLSCVASGRTSTIDTMYWHRQAPGNERELVAYVTSRGTSNVADSVKGRFTISRDNAKNTAYLQMNSLKPEDTAVYYCSVRTTSYPVDFWGQGTQVTVSSHHHHHH
1.1e-12 M	MSLN targeting trispecific protein 9H2 (protein, part only; not given: Albumin and CD3 binders, linkers, part only) chain, part: QVQLVESGGGLVQAGGSLRLSCAASGSTSSINTMYWYRQAPGKERELVAFISSGGSTNVRDSVKGRFSVSRDSAKNIVYLQMNSLTPEDTAVYYCNTYIPLRGTLHDYWGQGTQVTVSSHHHHHH
1.5e-12 M	MSLN targeting trispecific protein 5C2 (protein, part only; not given: Albumin and CD3 binders, linkers, part only) chain, part: QVQLVESGGGLVQAGGSLRLSCAASGSTSSINTMYWFRQAPGEERELVATINRGGSTNVRDSVKGRFSVSRDSAKNIVYLQMNRLKPEDTAVYYCNTYIPYGGTLHDFWGQGTQVTVSSHHHHHH
1.4e-12 M	MSLN targeting trispecific protein 10B3 (protein, part only; not given: Albumin and CD3 binders, linkers, part only) chain, part: QVQLVESGGGLVQAGGSLRLSCAASGSTSSINTMYWYRQAPGKERELVAFISSGGSTNVRDSVKGRFSVSRDSAKNIVYLQMNSLKPEDTAVYYCNTYIPYGGTLHDFWGQGTQVTVSSHHHHHH
1.6e-12 M	MSLN targeting trispecific protein 2A2 (protein, part only; not given: Albumin and CD3 binders, linkers, part only) chain, part: QVQLVESGGGLVQAGGSLTLSCAASGSTFSIRAMRWYRQAPGTERDLVAVIYGSSTYYADAVKGRFTISRDNAKNTLYLQMNNLKPEDTAVYYCNADTIGTARDYWGQGTQVTVSSHHHHHH
